Consider 125 sequences from the supplement of paper PMC9112550, “Optimization of the antimicrobial peptide Bac7 by deep mutational scanning” (BMC Biology, 2022).
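Note: peptides expressed intracellularly from a pBAD plasmid library in pooled LB shake-flask culture, induced with 0.3% L-arabinose, DNA abundance read by NGS, three biological replicates, DESeq2 with apeglm shrinkage.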

This data set concerns Escherichia coli TOP10. Put plainly: shrunken log2 fold change of peptide-encoding DNA abundance (4.5 h post-induction vs induction); higher = less antimicrobial activity (less host growth inhibition). The note with it: time post-induction: 4.5 h; library: site-saturation at positions 5, 18, 19, 20.
Consider RRIRDRPPRLPRPRPRPIGIPRP, for which the “shrunken log2 fold change” value was 0.00854. Regarding RRIRFRPPRLPRPRPRPCAQPRP, the “shrunken log2 fold change” value is -0.077. On to RRIRHRPPRLPRPRPRPCVKPRP, for which the “shrunken log2 fold change” value was -0.121. In the case of RRIRTRPPRLPRPRPRPWIVPRP it was -0.0452; in that of RRIRHRPPRLPRPRPRPIIMPRP, -0.029; in that of RRIRQRPPRLPRPRPRPHAGPRP, -0.084. As for RRIRRRPPRLPRPRPRPCMTPRP, the “shrunken log2 fold change” value was 0.409. With RRIRQRPPRLPRPRPRPLFNPRP, the “shrunken log2 fold change” value is -0.367. For RRIRRRPPRLPRPRPRPSMAPRP, the “shrunken log2 fold change” value is -0.142. In the case of RRIRARPPRLPRPRPRPCNEPRP it was -0.0554; in that of RRIRTRPPRLPRPRPRPNNAPRP, -0.303. In the case of RRIRDRPPRLPRPRPRPLLKPRP it was 0.437; in that of RRIRKRPPRLPRPRPRPIRLPRP, -0.0783. In the case of RRIRRRPPRLPRPRPRPTLEPRP it was 0.607; in that of RRIRNRPPRLPRPRPRPRIAPRP, 0.069. Regarding RRIRSRPPRLPRPRPRPDPVPRP, the “shrunken log2 fold change” value came to 0.377. Take RRIRRRPPRLPRPRPRPKARPRP: the “shrunken log2 fold change” value was determined as 0.277.

Turning to RRIRVRPPRLPRPRPRPMQNPRP, the “shrunken log2 fold change” value was found to be 0.111. The value for RRIRQRPPRLPRPRPRPGFKPRP was -0.534; that for RRIRSRPPRLPRPRPRPIWMPRP was -0.000641.

Regarding RRIRHRPPRLPRPRPRPWPYPRP, the “shrunken log2 fold change” value was -0.01. The value for RRIRCRPPRLPRPRPRPFITPRP was -0.639. For RRIRTRPPRLPRPRPRPEAIPRP, the “shrunken log2 fold change” value was -0.00172. For RRIRPRPPRLPRPRPRPASPPRP, the “shrunken log2 fold change” value stood at 0.287. With RRIRIRPPRLPRPRPRPYMNPRP, the “shrunken log2 fold change” value was -0.712.

On to RRIRTRPPRLPRPRPRPCLSPRP, for which the “shrunken log2 fold change” value worked out at 0.079. For RRIRARPPRLPRPRPRPLVNPRP, the “shrunken log2 fold change” value came to 0.0552. The value for RRIRLRPPRLPRPRPRPESIPRP was 0.0419; that for RRIRTRPPRLPRPRPRPIDPPRP was -0.201; that for RRIRHRPPRLPRPRPRPARKPRP was -0.164. The value for RRIRDRPPRLPRPRPRPRSQPRP was 0.137; that for RRIRLRPPRLPRPRPRPEKIPRP was -0.223; that for RRIRKRPPRLPRPRPRPICSPRP was -9.46e-05. The value for RRIRFRPPRLPRPRPRPPNEPRP was 0.0211.

Take RRIRCRPPRLPRPRPRPYVFPRP: the “shrunken log2 fold change” value is -0.362. Regarding RRIRARPPRLPRPRPRPRYRPRP, the “shrunken log2 fold change” value worked out at 0.165.

In the case of RRIRGRPPRLPRPRPRPMCYPRP, the “shrunken log2 fold change” value amounted to 0.243. In the case of RRIRFRPPRLPRPRPRPSKKPRP it was 0.0524.

Take RRIRERPPRLPRPRPRPDHTPRP: the “shrunken log2 fold change” value was -0.0309. Turning to RRIRARPPRLPRPRPRPYSRPRP, the “shrunken log2 fold change” value was -0.0171. The value for RRIRGRPPRLPRPRPRPLPRPRP was 1.5; that for RRIRDRPPRLPRPRPRPDWVPRP was 0.0881; that for RRIRWRPPRLPRPRPRPKHSPRP was 0.0898. In the case of RRIRVRPPRLPRPRPRPAWQPRP it was -0.00433; in that of RRIRMRPPRLPRPRPRPYFKPRP, -0.647. In the case of RRIRERPPRLPRPRPRPFMNPRP it was -0.00101; in that of RRIRSRPPRLPRPRPRPDYGPRP, -0.0953; in that of RRIRSRPPRLPRPRPRPEISPRP, -0.094. RRIRYRPPRLPRPRPRPVQDPRP: the “shrunken log2 fold change” value is -0.00208. Regarding RRIRPRPPRLPRPRPRPSRFPRP, the “shrunken log2 fold change” value came out at 0.227. Regarding RRIRLRPPRLPRPRPRPSEFPRP, the “shrunken log2 fold change” value is -0.855. RRIRWRPPRLPRPRPRPIQLPRP: the “shrunken log2 fold change” value is -0.304. With RRIRWRPPRLPRPRPRPPFNPRP, the “shrunken log2 fold change” value was found to be 0.31. As to RRIRGRPPRLPRPRPRPVKYPRP, the “shrunken log2 fold change” value was 0.235. RRIRKRPPRLPRPRPRPVEPPRP: the “shrunken log2 fold change” value was 0.505. The value for RRIRMRPPRLPRPRPRPNASPRP was 0.0546; that for RRIRPRPPRLPRPRPRPEPSPRP was 0.314; that for RRIRTRPPRLPRPRPRPVKYPRP was 0.0856. The value for RRIRCRPPRLPRPRPRPGAVPRP was 0.202.

As for RRIRPRPPRLPRPRPRPWMAPRP, the “shrunken log2 fold change” value was -0.113. For RRIRNRPPRLPRPRPRPWRHPRP, the “shrunken log2 fold change” value was -0.109. As to RRIRNRPPRLPRPRPRPPTDPRP, the “shrunken log2 fold change” value amounted to 0.992. In the case of RRIRGRPPRLPRPRPRPATGPRP it was 0.308; in that of RRIRNRPPRLPRPRPRPHVMPRP, -0.503; in that of RRIRPRPPRLPRPRPRPERHPRP, 0.00192. As for RRIRVRPPRLPRPRPRPLVDPRP, the “shrunken log2 fold change” value is -0.196.

Take RRIRPRPPRLPRPRPRPRPCPRP: the “shrunken log2 fold change” value was 0.188. Regarding RRIRDRPPRLPRPRPRPQPDPRP, the “shrunken log2 fold change” value was determined as 0.177. The value for RRIRKRPPRLPRPRPRPTCWPRP was 0.499. Regarding RRIRGRPPRLPRPRPRPFPCPRP, the “shrunken log2 fold change” value was -0.0294. Turning to RRIRSRPPRLPRPRPRPGQAPRP, the “shrunken log2 fold change” value turned out to be 0.0166. In the case of RRIRFRPPRLPRPRPRPMPAPRP it was 0.283; in that of RRIRPRPPRLPRPRPRPYVCPRP, -0.73. The value for RRIRYRPPRLPRPRPRPGADPRP was -0.177. Turning to RRIRDRPPRLPRPRPRPTHNPRP, the “shrunken log2 fold change” value was -0.00516.

In the case of RRIRHRPPRLPRPRPRPCRHPRP, the “shrunken log2 fold change” value was -0.204. In the case of RRIRGRPPRLPRPRPRPFCGPRP it was 0.224; in that of RRIRERPPRLPRPRPRPYHIPRP, -0.212. The value for RRIRPRPPRLPRPRPRPWSHPRP was -0.157. The value for RRIRDRPPRLPRPRPRPYCHPRP was -0.121; that for RRIRERPPRLPRPRPRPKMPPRP was -0.0401; that for RRIRERPPRLPRPRPRPCAFPRP was -0.315.

In the case of RRIRKRPPRLPRPRPRPWKCPRP, the “shrunken log2 fold change” value was -0.0018. For RRIRFRPPRLPRPRPRPLKLPRP, the “shrunken log2 fold change” value is -0.147. In the case of RRIRCRPPRLPRPRPRPAHHPRP it was -0.222. With RRIRERPPRLPRPRPRPSNFPRP, the “shrunken log2 fold change” value was -0.909.

For the sequence RRIRWRPPRLPRPRPRPGMPPRP, the “shrunken log2 fold change” value came out at 0.294. As for RRIRDRPPRLPRPRPRPVVAPRP, the “shrunken log2 fold change” value came to 0.725. The value for RRIRCRPPRLPRPRPRPYIAPRP was -0.762. The value for RRIRNRPPRLPRPRPRPSFTPRP was -0.255; that for RRIRSRPPRLPRPRPRPDSPPRP was 0.242.

For the sequence RRIRERPPRLPRPRPRPKHRPRP, the “shrunken log2 fold change” value was -0.457. In the case of RRIRQRPPRLPRPRPRPIKHPRP it was -0.12; in that of RRIRPRPPRLPRPRPRPGQPPRP, -0.0656. For the sequence RRIRWRPPRLPRPRPRPAGKPRP, the “shrunken log2 fold change” value worked out at 0.0305.

As to RRIRHRPPRLPRPRPRPGYEPRP, the “shrunken log2 fold change” value is -0.454. In the case of RRIRTRPPRLPRPRPRPCSPPRP it was -0.0356; in that of RRIRWRPPRLPRPRPRPQPPPRP, 0.603. For the sequence RRIRNRPPRLPRPRPRPVIHPRP, the “shrunken log2 fold change” value was -0.0797. As to RRIRNRPPRLPRPRPRPWFDPRP, the “shrunken log2 fold change” value is -0.876. In the case of RRIRARPPRLPRPRPRPLIDPRP, the “shrunken log2 fold change” value was 0.647. Regarding RRIRIRPPRLPRPRPRPRMMPRP, the “shrunken log2 fold change” value is -0.293.

With RRIRGRPPRLPRPRPRPLHHPRP, the “shrunken log2 fold change” value worked out at 0.452. For RRIRERPPRLPRPRPRPEFYPRP, the “shrunken log2 fold change” value is -0.377.

For the sequence RRIRYRPPRLPRPRPRPHNHPRP, the “shrunken log2 fold change” value was -1.01.

Consider RRIRCRPPRLPRPRPRPTLPPRP, for which the “shrunken log2 fold change” value is 0.356. In the case of RRIRHRPPRLPRPRPRPNQEPRP, the “shrunken log2 fold change” value was -0.00942. In the case of RRIRPRPPRLPRPRPRPYFGPRP it was -0.522; in that of RRIRDRPPRLPRPRPRPSFCPRP, -0.0945. The value for RRIRRRPPRLPRPRPRPTRTPRP was 0.681. Turning to RRIRSRPPRLPRPRPRPKSLPRP, the “shrunken log2 fold change” value is -0.0747. In the case of RRIRFRPPRLPRPRPRPDRQPRP it was 0.0398; in that of RRIRPRPPRLPRPRPRPALAPRP, 0.412. The value for RRIRTRPPRLPRPRPRPSHAPRP was -0.345; that for RRIRERPPRLPRPRPRPHIWPRP was 0.00885. In the case of RRIRMRPPRLPRPRPRPRVWPRP it was 2.08; in that of RRIRSRPPRLPRPRPRPTKWPRP, -0.0872. In the case of RRIRCRPPRLPRPRPRPHTNPRP, the “shrunken log2 fold change” value was -0.564. Regarding RRIRTRPPRLPRPRPRPWTVPRP, the “shrunken log2 fold change” value was -0.0107. In the case of RRIRMRPPRLPRPRPRPCKAPRP it was 0.173; in that of RRIRPRPPRLPRPRPRPMGMPRP, 0.0285; in that of RRIRERPPRLPRPRPRPIDLPRP, -0.219. In the case of RRIRNRPPRLPRPRPRPQRQPRP it was 0.0149; in that of RRIRTRPPRLPRPRPRPCMWPRP, 0.0746. Regarding RRIRGRPPRLPRPRPRPCGTPRP, the “shrunken log2 fold change” value amounted to 1.44.
